{"source": "the DeepSol protein solubility set"}
{"test": "soluble on expression in E. coli; label from the status in PepcDB or PDB records"}
{"sequence": "MAHHHHHHMSPLDACREQYEKDLANQTHCCMLEHVEEENRAANRKVFVRLLRYQQDINTRGTLPFEPDPTDAQKKSKGGNSAAPAYPENLTIRDPRQLKQILPIPDIHKVSDCDLIYRFLIARRMDVDLATNDILSYIGFREKYSLDTILWDREVEAVFNGLDGEELVQQVMGEMKKGATPAPKVKITRPLLQAGWAAWYCGVDKRGHVIFYQRPNPKELAMLEKRWPYIEGQYDCRNPEFHSVTPPYSNLLSRVYLREVEKGRRISRLLNYNQQYIIREGLHVQTTVKPTSTDTFMDNGGGATCLVDVGSIKLSHLTSSKCKKAFKLFRVLSLTGQSFYPENMSRMIIINGGFVFNMLFKLVRPWLDPQTQKKIVLLSATNRATLDELSSDSNLMSQSHETNDSEESDDDGTPVVGTDSERAKYALRDALAEYIHEDFIPSWYGGRLPVVDSPLFYGASPPKSLAENPQFAAACERLRARVVPQLLPDAFIFANAKEREGVGQEEWEAFCSMTERTLFRKQASTQCSSHS", "soluble on expression in E. coli": "not soluble"}
{"sequence": "MSLILFFYFMVLSEACMRTVAPEDVYISSTFPFEDFTTEAVVTTDSSTISQLTTETTMETVETHIFYVTCKNRYPISNRNCLINRHTDDFFCFILPVDACMRTVPPEDVYISITLPYEDFTTESNEIAVTTDSSTVPQLVTETTEIPTATTTPGWSSKTELHWKISKILNTK", "soluble on expression in E. coli": "not soluble"}
{"sequence": "MKSFILGPLGLLVAICCLYQPADAALAAMSIDLGSQFIKIGLVKPGVPMDIVLNKESRRKTPNVISFKNDERFFAEAAAAMSSSHPQSSYNFLLSMIARKEGDDAFVTFQKTFPFTAFEFDEVRKTVVFPYKEEKYNVETLLAMILWNAKKVTEAYADQTVKDVVITVPIFLNQAERRAIASAAEIAGLNLLQLLNDGSAAALNYGVFRRKEITEKPTHMLIYDMGAVKTTATIVQYVLESTRKDGKDKQPTLRTVGVGFDKTLGGLEITNRLRDHLEKVFRDTVKTSKDISTNARAIGKLHKEAERVKQVLSANKDTYAQVESLFEEQNFRAKVTREELEKMIEDLEPRIAAPILDAIGMAQISTNDIDLVVLMGAGTRVPKVKEILKTILKDKEISNFLNTDEAIAMGAVYQAAHLSKSFKVLPFNVHEKILYPVFVNFLTKTEEGTMKPIRKSLFGENYPVPNRVMHFSSYSDDFKIDIQDADKNPLSTVEISGVKDAIEKEVTDENSVLKGVKTTFSIDLSGIVSVEKASVVVEKVPTPEEKDKYEVDKKEFDEWEKEQEELKKKEKAEKKEKEEKKKTEGEEEKNEDAAGEEKTEEKTEEVEKPVVVKKTKPVEPKAKKINVALTIKETKTDNIDLNEEEVTAAKKVLGDFEQKEKEKHDREEAMNRLEGLLYDLAVRLEDGEEYAEYATEEEKKAILEEVAVLKLWFEDDVSLETKKEEFDEKRAKLEELTAKPNARKQERLDIPKVAEIIEDHFNRSMTFHAMALNLTQFEEGNKTFTDTELEVLTKLIESTTEWWNEKKDLFEKQAKNEDPVVKASEIAEKARDLEREVRYLVNKLKIASSKKSKESEKKKKTKKEKDTVKERKEEETTETTTEDQANEQQTPPPFENDNTKDDESASTEEPKKDTEHDASEL", "soluble on expression in E. coli": "not soluble"}
{"sequence": "MNTPLQRPLADSTGLIENDAHALAVATALAQEFSIDAALRDRERQIPYSELDAVSRSGILGISIPLAFGGAEVNNVILAKVIAQIAQADGSLGQILQNHFHTLEALRVYGSRAQQQRIFAEVLAGALFGVAVDEQGTTNSQICTAVLAPSGEGYRISGRKFCATCAPYTRQILASAVDAQGARYMVFISLDALGLSIVDDGSCFGQRTVGGGSVMFDNVYVTSSDVVPFQVSLNDPNCVERHAQFMHAAVGTGIARAAYEDTLRFVREHARPWPEAAVDKARDDPLTIIEIGRLIIRLHAAEALLERAGAAVDLNRKAVCAENVALASMVVAAAQTLSTEVSLAAGSKLIELGGARATLSDYGLDRHWRNARVHTLYDPARWGPHQQGQQKLAPF", "soluble on expression in E. coli": "not soluble"}
{"sequence": "PPKIRVVVRKRPISKKERERGDDDVVDVLAKNNTVVVNEEKVKVDLTKYLEKHAFKFDESLDENVSNEAVYQLTVGPLVRTLFRNGRASCFAYGQTGSGKTYTMSPLPIRASADIFTFMAQQQYRDISLCVSCFEIYGNKVFDLLNARKKLNILEDGKKKVVVVGLKEFGVDDVDGVKALIEESAKNRSTGSTAANADSSRSHSIMQFALKRAAPAPAGGFRRGEDAPEPRVVGKISFIDLAGSERGADTFDNNRQTRLEGAEINKSLLALKECIRALDSDARHVPFRGSKLTAVLRDSFVGDQARTVMIANISPCSSSVEHTLNTLRYADRVKELRKDKADRT", "soluble on expression in E. coli": "soluble"}
{"sequence": "VALSADIVGMHYRYPDHYEVEREKIREYAVAVQNDDAWYFEEDGAAELGYKGLLAPLTFICVFGYKAQAAFFKHANIATAEAQIVQVDQVLKFEKPIVAGDKLYCDVYVDSVREAHGTQIIVTKNIVTNEEGDLVQETYTTLAGRAGEDGEGFSDGAA", "soluble on expression in E. coli": "soluble"}
{"sequence": "MKEFVHDYLAASVENEEEGGRMRWYPWHSAEYRFNHILNVVDIATKIARKEGANVDVTRVAALFHDIAKLEAEQDLHAEAGARIAREYLRAHGDYPESFIEQVCSAVEVHSYQGSLDDLPLEVQCLIEADILDKVGANGTALMLLRMGYESRTHMDAAEMVDRVIERGEDARERVQSDTAESLVHQRLKRTRWFQEWLTMEVAEMAVEDDLDDVATGMGDSLEHHHHHH", "soluble on expression in E. coli": "soluble"}
{"sequence": "MATTSAQTSPTEFGAGLPEAEDHSESAEPQSVEAEVIDERYADVWEKIQHARTIDVHDDAEVRKQRNFFDDKQKFMTQVTQRAEPFLYYIVSQLEARNMPLELALLPIVESGYNPLAQANGPAGLWQMIPATGRNFGLTINSAYDGRKDALASTDAVLDYLQHLYNTLGNDWINAVAGYNSGELVIKAAIDRNKAKGKPTDFWSLNIPARQVQTVPKWLAFIQIIREPSHYNLKVMPIANRPFLERLPAPNGVEISQIANAAGLTKAEFKTYNPGYRQSVIPSKGKYQIALPIENIGHYQENQHKLYAQKRYDSQTYIVKSGDSLGTIAAKFDLSVKELKQANNLTSDRLKIGQELTLLTPMAANDNEPEPVKTKANTDKSSTKANASSTKATSSKSTDKPVAKAKTYKVKSGDSLDKIARKSKVKLADLMKWNQLNAKSIIKPGQELKISELEHHHHHH", "soluble on expression in E. coli": "not soluble"}
{"sequence": "YQQDQVVKEDNIEAVGKKLHKYNTQFQEKSREYDRLYEEYTRTSQEIQMKRTAIEAFNETIKIFEEQCQTQERYSKEYIEKFKREGNEKEIQRIMHNYDKLKSRISEIIDSRRRLEEDLKKQAAEYREIDKRMNSIKPDLIQLRKTRDQYLMWLTQKGVRQKKLNEWLGN", "soluble on expression in E. coli": "soluble"}
{"sequence": "MTVTIKELTNHNYIDHELSATLDSTDAFEGPEKLLEIWFFPHKKSITTEKTLRNIGMDRWIEILKLVKCEVLSMKKTKELDAFLLSESSLFVFDHKLTMKTCGTTTTLFCLEKLFQIVEQELSWAFRTTQGGKYKPFKVFYSRRCFLFPCKQAAIHQNWADEVDYLNKFFDNGKSYSVGRNDKSNHWNLYVTETDRSTPKGKEYIEDDDETFEVLMTELDPECASKFVCGPEASTTALVEPNEDKGHNLGYQMTKNTRLDEIYVNSAQDSDLSFHHDAFAFTPCGYSSNMILAEKYYYTLHVTPEKGWSYASFESNIPVFDISQGKQDNLDVLLHILNVFQPREFSMTFFTKNYQNQSFQKLLSINESLPDYIKLDKIVYDLDDYHLFYMKLQKKI", "soluble on expression in E. coli": "soluble"}
{"sequence": "SKREHNHRRITVTAAIGNKHRRQLATNLHAIEHHAFEHFIAWVAENHFEPEADCKLGTRLRHAGVPGQQ", "soluble on expression in E. coli": "soluble"}
{"sequence": "MGSDKIHHHHHHMMKQIIAMAGGGFSMEPDNLSLDQYILNQSKREQHRICFLPTASGDSQNYIQRFYHAFQTLDCVPSHLSLFKPPSSDLVSFVMEMDVIYVGGGNTRNLLVLWKEWGLDHILREAWKNGVVVAGISAGAICWFEEGVTDSAGPLTSLKSLGFLQGSFCPHYDGEKDRRPAYHQLISNKFLCSGYAADDGAALHFINDQLFQTVSSRSGAKAYRVMMAEHEIAEIPLPVKYVRVKLAEYYLYSSFFQIDFMIR", "soluble on expression in E. coli": "not soluble"}
{"sequence": "MGSDKIHHHHHHMEPTFQPSRSAIPVLSVSGVGKTYAEPVLADVTLTLAPGEALALTGENGAGKSTLSKIIGGLVDPTTGTMQLGGQAYAPASRTQAEALGVRMVMQELNLLPTLTVAENLFLNRLPRRFGIIDRARLHDDAQAAMARVGLDAIDPDTPVGALGIGHQQMVEIARNLIGDCRVLILDEPTAMLTAREVELLFEQIDRLKAHGVAIVYISHRLDELARVAERVAVLRDGRLVHVGDMAATTSDGLVTLMVGREIGEHIDLGPRRIGAPRLAVSGMTRGTAVQDVSLEVRSGEIFGISGLIGAGRTELLRLIYGADTPDAGMISVGDPLKPARIASPVDAVRHGIALITEDRKGEGLLLSQSVTSNVSLGQLEQLARGGIVNTARETALAEQQIDALRIRTHGAAQPVGELSGGNQQKVVIGRWLARDMGVLLFDEPTRGIDVGAKFEIYTLMGALARDGRALVVVSSDLRELMLICDRIGVMSAGRMTAVFERGNWTQDALLAAAFAGFGRDALPEGARHLDAQAAPRAASGTSTTGRQQ", "soluble on expression in E. coli": "not soluble"}
{"sequence": "MSSARRCLFGRPTPEQRSRTRIWLEDAVKRMRQEESQKWGFDFELETPLPSSAGFVYEVIPENCVPEFYRTKVLTVRTTCSSLDISSTTLTPLSSPSTSDKEEPSLMDPNSSFEDEEEPKKWQFREPPTPRKTPTKRQQKMTDFMAVSRKKNSLSPNKLSPVNVIFTPKSRRPTIRTRSSCSPY", "soluble on expression in E. coli": "not soluble"}
{"sequence": "MDEDVGLEATNYSRGDESRSEEQEKNVVRWRIVQQSTGPNPKPRHGHRAVVLKELIVIFGGGNEGMIDELHAYNTQKREWTAPQCCGDVPTPAAAFGAISLGNKIYRFGGMTEYGKYTNDLYELQSTRWEWRRLNPRVHSNGHLPCPRIGHSFVVSQKSQKAYVFGGLSNDLNDPKRNVPHYLDDLYVINLSGPQHLIWEKLNATGPGPISRESHTAVIYEKDSISRMVVYGGMNGVRLGDLWYLNLNTLHWTEIKFDDPRTGIPPMPRSLHSSVLIGDKMFVYGGWVPLLEHASTEQQTEKEWKCTSSLGCWNITEDRWVPLHLYCSDEDTIPRGRAGHCAAAVGDRMYIWSGRDGYRKAWSNQVCCRDMWLLDTILPEQPGKVQLGRAGFNSLEISWPIVQGASGYFLQIGFGDAKEQSVSPIKRATTSPRKQPSIVPPSQKETEQSPKKPQGTAPSIISTQGTTYTAPADPKPATDEGGLPQDLFEDTEKNETASPKRSNDAQSADSSTCEQKKTDESGLEEDSEKDQKPSDAGETDEMKEENGDDDLPWFDVGIIDKATINVTHYFNDRQQSLEKQLNDLIDHNAFKCVNDSVFTTEDKIPLINGQSYRFRVSAINGLGKGAWSETASCKTCVPGYPSAPSSIRITKSHEGAQLTWEPPSNTNISGKIIEYSVYLAVKNQSANSADSQLAFMRVYCGPQADCQVLQSNLGTAFVDQTNKPAIIFRIAARNEKGYGPATQVRWLQDQQKIPVRTNYPNNSGFIYQQHGGQQKRARFDHQ", "soluble on expression in E. coli": "not soluble"}
{"sequence": "MAHHHHHHMNKHICIYGGSFDPITHAHEMVLAEVSSLDWVDEIWVVLCRCRNDKHLTEFQHRHNMFSLIMNNNSPKMLKNKIFLKDIECKETTTPTYDLLKMQKEKYPNYTFYFTIGSDLLNDIFFWDNGEKLVAENNFIIVERGNFKIDENVLKKFPSYYLIKIENMSFINYISSSDARKMLSQKNNSEDLQKYIHPVIINYIKEHDLYDNNSA", "soluble on expression in E. coli": "soluble"}
